Data from publication PMC10772716.
Each block holds one substance with its values, some of them ahead of it.

Legend:
Assay in all cases: SEC-MALS
[1] = target: cMyBP-C C3C6 domains, R820Q variant (human) (UniProt Q14896)
[2] = target: cMyBP-C C3C6 domains, E542Q variant (human) (UniProt Q14896)
[3] = target: cMyBP-C C3C6 domains, N755K variant (human) (UniProt Q14896)

stoichiometry N [1]: 2
Substance: cMyBP-C C3C6 domains, R820Q variant (from UniProt Q14896 1-1274) (domain or fragment)

stoichiometry N [2]: 2
Substance: cMyBP-C C3C6 domains, E542Q variant (from UniProt Q14896 1-1274) (domain or fragment)

stoichiometry N [3]: 2
Substance: cMyBP-C C3C6 domains, N755K variant (from UniProt Q14896 1-1274) (domain or fragment)
